How the values were obtained:
HPV33 L1/L2-capsid = target: T1, HPV33 L1/L2-capsid (human papillomavirus type 33, UniProt P06418 1-467; P06416 1-499); assay: ELISA on immobilized L1/L2-capsid, purified antibody 250 ng/well
T1 construct: Capsid of co-expressed L1 and L2 from 293FT cells; The pseudovirus is the same capsid with a reporter plasmid; also called L1/L2-capsid of type 33; HPV33 pseudovirus
T1 sequence 1: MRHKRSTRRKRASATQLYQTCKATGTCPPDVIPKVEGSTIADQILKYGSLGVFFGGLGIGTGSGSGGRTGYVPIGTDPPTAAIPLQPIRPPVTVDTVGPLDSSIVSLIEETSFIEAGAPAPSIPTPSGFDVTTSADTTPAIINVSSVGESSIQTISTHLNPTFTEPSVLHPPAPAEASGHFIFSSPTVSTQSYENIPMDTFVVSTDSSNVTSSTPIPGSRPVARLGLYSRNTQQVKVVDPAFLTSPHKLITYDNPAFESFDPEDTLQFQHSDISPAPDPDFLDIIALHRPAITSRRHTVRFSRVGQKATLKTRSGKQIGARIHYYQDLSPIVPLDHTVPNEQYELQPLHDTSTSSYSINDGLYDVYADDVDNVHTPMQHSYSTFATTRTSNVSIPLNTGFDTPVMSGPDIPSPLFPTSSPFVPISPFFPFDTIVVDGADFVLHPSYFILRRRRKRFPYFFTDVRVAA
T1 sequence 2: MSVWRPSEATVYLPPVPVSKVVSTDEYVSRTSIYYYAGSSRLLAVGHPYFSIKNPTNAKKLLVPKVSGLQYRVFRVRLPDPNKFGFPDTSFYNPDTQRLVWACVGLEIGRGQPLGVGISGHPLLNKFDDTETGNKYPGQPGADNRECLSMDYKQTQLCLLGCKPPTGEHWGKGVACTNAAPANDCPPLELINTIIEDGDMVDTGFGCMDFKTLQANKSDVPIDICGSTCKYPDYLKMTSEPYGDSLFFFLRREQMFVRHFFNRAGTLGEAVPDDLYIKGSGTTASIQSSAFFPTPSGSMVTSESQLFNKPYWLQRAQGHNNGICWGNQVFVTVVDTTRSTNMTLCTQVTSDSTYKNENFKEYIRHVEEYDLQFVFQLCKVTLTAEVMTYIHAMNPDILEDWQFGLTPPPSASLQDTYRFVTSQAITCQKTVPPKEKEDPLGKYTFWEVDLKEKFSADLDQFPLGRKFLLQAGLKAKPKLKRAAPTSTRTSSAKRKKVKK

HPV35 L1/L2-capsid = target: T2, HPV35 L1/L2-capsid (human papillomavirus type 35, UniProt P27234 1-469; P27232 1-502); assay: ELISA on immobilized L1/L2-capsid
T2 construct: Capsid of co-expressed L1 and L2 from 293FT cells; The pseudovirus is the same capsid with a reporter plasmid; also called L1/L2-capsid of type 35; HPV35 pseudovirus
T2 sequence 1: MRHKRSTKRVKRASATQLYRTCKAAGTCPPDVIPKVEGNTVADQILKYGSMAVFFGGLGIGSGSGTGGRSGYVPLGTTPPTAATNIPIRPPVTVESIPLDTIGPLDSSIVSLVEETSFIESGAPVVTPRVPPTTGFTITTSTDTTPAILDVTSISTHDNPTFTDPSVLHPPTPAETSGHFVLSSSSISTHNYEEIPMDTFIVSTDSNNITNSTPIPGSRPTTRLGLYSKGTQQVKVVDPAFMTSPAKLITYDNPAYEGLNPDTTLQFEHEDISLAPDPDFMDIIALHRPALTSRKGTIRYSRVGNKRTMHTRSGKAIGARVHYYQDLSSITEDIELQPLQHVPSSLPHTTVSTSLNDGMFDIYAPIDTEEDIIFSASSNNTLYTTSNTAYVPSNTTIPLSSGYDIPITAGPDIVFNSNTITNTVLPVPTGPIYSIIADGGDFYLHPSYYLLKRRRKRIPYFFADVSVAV
T2 sequence 2: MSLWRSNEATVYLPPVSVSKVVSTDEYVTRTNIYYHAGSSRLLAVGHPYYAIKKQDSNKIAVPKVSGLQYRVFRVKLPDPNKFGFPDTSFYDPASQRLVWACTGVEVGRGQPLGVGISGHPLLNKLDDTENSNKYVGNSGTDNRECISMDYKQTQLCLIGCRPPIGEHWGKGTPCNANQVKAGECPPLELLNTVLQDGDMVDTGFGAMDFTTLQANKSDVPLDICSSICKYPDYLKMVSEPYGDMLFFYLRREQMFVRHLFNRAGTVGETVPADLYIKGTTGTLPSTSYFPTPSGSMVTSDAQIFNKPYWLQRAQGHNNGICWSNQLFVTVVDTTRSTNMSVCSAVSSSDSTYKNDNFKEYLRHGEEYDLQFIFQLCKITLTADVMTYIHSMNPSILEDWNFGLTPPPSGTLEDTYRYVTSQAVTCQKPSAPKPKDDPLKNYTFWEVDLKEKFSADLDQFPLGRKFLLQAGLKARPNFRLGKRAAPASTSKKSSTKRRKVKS

B1: monoclonal antibody 13B (antibody, V domains shown)
VH: DVQLQESGPGLVKPSQSLSLSCTVTGYSITSDSAWNWIRQFPGNKLEWMGYITFSGSTNYNPSLKSRLSITRDTSKNQFFLQLNSVTTEDTATYYCTGPFLDYWGQGTTLTVSS
VL: DVVMTQTPLSLPVSLGDQATISCRSSLSLVLSNRITYLQWYLQKPGQSPKLLIYKVSNRFSGVPDRFSGSGSGTDFTLKISRVEAEDLGVYFCSQSSHFPWTFGGGTKLEIKR
notes: Used as mouse ascites or as antibody purified from ascites; also called Mouse-Mouse hybridoma 13B (FERM BP-11304)
B1: binds (HPV33 L1/L2-capsid); no binding (tested: ascites diluted 1:100) (HPV35 L1/L2-capsid).
